For three molecules, Kd results are on record in paper PMC7314969, “Natural Transformation in Deinococcus radiodurans: A Genetic Analysis Reveals the Major Roles of DprA, DdrB, RecA, RecF, and RecO Proteins”.

First the molecules themselves.
T1: DprA (DrDprA) (Deinococcus radiodurans R1 ATCC 13939, UniProt Q9RY31 1-370)
T1 sequence: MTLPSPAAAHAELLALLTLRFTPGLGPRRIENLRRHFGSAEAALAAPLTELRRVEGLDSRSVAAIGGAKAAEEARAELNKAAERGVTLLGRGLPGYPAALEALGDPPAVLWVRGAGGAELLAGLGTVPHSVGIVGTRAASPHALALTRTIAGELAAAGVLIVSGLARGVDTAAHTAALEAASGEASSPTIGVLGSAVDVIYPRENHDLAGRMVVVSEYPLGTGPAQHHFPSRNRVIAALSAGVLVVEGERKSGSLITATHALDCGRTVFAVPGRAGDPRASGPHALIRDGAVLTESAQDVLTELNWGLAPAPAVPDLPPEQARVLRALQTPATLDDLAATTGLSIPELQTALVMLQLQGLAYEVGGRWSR

B1: dT100 (ssDNA)
DNA: TTTTTTTTTTTTTTTTTTTTTTTTTTTTTTTTTTTTTTTTTTTTTTTTTTTTTTTTTTTTTTTTTTTTTTTTTTTTTTTTTTTTTTTTTTTTTTTTTTTT

In the data set the target is T1, DprA (DrDprA). Kind of data set: fluorescence anisotropy; 2.5 mM Mg2+; apparent Kd; 25 mM NaCl, 20 mM Tris pH 7.5, 2.5 mM MgCl2, 2.5% (v/v) glycerol, 25 nM 5'-fluorescein ssDNA, 20 C; 35-mers of varying GC content (Fig. 5B) also tested, affinity rises with GC, but number, sequences and values not in the material. The note with it: protein: recombinant; tags: C-terminal His6; chain copies: 2; label: 5'-fluorescein. For orientation: In fluorescence polarisation assays a small probe gives low polarisation when free and higher when bound to something large.
For the molecule TTTTTTTTTTTTTTTTTTTT (ssDNA) [dT20], the Kd is 7500 nM.

Regarding B1, the Kd was found to be 1000 nM.

Take TTTTTTTTTTTTTTTTTTTTTTTTTTTTTTTTTTTTTTTTTTTTTTTTTT (ssDNA) [dT50]: the Kd is 1200 nM.
